The values that follow are results of earlier work, collected in publication PMC8391295.

For this data set, the target named is CD4 (Homo sapiens) (UniProt P01730).

Sequence of Prolactin-inducible protein (P12273 29-146): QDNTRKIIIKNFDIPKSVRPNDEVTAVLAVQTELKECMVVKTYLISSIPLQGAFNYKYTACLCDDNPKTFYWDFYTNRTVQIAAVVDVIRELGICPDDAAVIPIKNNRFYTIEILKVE

On to “Prolactin-inducible protein (from UniProt P12273)”, for which the Kd is 6 nM.

For orientation: Kd means the concentration at which binding is half-saturated.
